Experimental data published in patent publication US20250270315A1 (ELPISCIENCE SUZHOU BIOPHARMA, published 2025).

T1: C57BL/6 mouse SIRPα stably expressed on CHOK1 cells (C57BL/6 mouse, UniProt P97797 32-513)
T1 construct: whole, on cells; also called CHOK1-C57BL/6 mouse SIRPα
T1 sequence (looked up): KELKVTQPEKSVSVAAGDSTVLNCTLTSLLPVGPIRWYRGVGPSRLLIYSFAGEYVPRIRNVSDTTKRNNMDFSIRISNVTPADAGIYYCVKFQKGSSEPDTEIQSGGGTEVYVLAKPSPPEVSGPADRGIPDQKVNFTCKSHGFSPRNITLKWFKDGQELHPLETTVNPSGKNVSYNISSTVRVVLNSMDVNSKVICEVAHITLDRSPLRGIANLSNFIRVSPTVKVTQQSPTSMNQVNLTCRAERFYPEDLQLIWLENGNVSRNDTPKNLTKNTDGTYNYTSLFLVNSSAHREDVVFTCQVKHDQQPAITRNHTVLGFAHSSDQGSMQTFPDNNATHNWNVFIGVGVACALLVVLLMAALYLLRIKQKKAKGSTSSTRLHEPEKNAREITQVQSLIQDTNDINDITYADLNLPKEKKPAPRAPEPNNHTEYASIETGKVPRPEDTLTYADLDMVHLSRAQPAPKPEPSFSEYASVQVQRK

B1: 015 (antibody, V domains shown)
VH: EVQLQQSGVEVVQPGASVKLSCTASGFNIEAYYMHWVKQRTEQGLEWIGRIDPEDGESKYAPKFQGKATMTADTSSSTAYLQLSSLTSDDTAVYYCVRGSYEYWGQGTTLTVSS
VL: QIVLTQSPAIMSASPGEKVTLTCSASSSVSSSYLYWYQQKPGSSPKLWIYSTSNLASGVPPRFSGSGSGTSYSLTISSMQAEDAASYFCYQWSSYPYTFGGGTKLEIK
notes: Mouse monoclonal hybridoma antibody; also called antibody 015; hybridoma antibody 015
B2: 025 (antibody, V domains shown)
VH: EVQLQQSGAELVKPGASVKLSCTASGFNIKDYYMHWVKQRTEQGLEWIGRIDPEDGETKYAPKFQGKATITADTSSNTAYLQLSSLTSEDTAVYYCDRGLAYWGQGTLVTVSA
VL: QIVLTQSPAIMSASPGEKVTLTCSASSSVSSSYLYWYQQKPGSSPKLWIYSTSNLASGVPARFSGSGSGTSYSLTISSMEAEDAASYFCHQWSSYPYTFGGGTKLEIK
notes: Mouse monoclonal hybridoma antibody; also called antibody 025; hybridoma antibody 025
B3: 059 (antibody, V domains shown)
VH: QVQLQQSGPELVKPGASVKMSCKASGYTFSEYVLSWVKQRTGQGLEWIGEIYPGTITTYYNEKFKGKATLTADKSSNTAYIQLTSLTSEDSAVYFCGRFYDYDGGWFAYWGQGTLLTVSA
VL: ENVLTQSPEKMAVSLGQKVTMTCSASSSVSSSDLHWYQQKSGASPKPLIHGTSNLASGVPARFSGSGSGTSYSLTISSVEAEDAATYYCQQWSGYPWTFGGGTNLEIK
notes: Mouse monoclonal hybridoma antibody; also called antibody 059; hybridoma antibody 059
B4: HEFLB (antibody, V domains shown)
VH: EVQLVQSGAEVKKPGESLRISCKASGYSFTSYWVHWVRQMPGKGLEWMGNIDPSDSDTHYSPSFQGHVTLSVDKSISTAYLQLSSLKASDTAMYYCVRGGTGTLAYFAYWGQGTLVTVSS
VL: DVVMTQSPLSLPVTLGQPASISCRSSQSLVHSYGNTYLYWFQQRPGQSPRLLIYRVSNRFSGVPDRFSGSGSGTDFTLKISRVEAEDVGVYYCFQGTHVPYTFGGGTKVEIK
B5: 071 (antibody, V domains shown)
VH: QIQLVQSGPELKKPGETVKISCKASGYTFTTYGMSWVKQAPGKGLKWMVWINTYSGVPTYADDFQGRFAFSLETSASTSYLQINNLRNEDTATYFCARDPHYYGTSPAWFAYWGQGTLVTVSA
VL: DIVMTQSQKFMSTTIGDRVIITCKASQIVGIAVAWYQQKPGQSPKLLIYSASNRFTGVPDRFTGSGSGTDFTLTISNMQSEDLADYFCQQYSTYPFTFGSGTKLEIK
notes: Mouse monoclonal hybridoma antibody; also called antibody 071; hybridoma antibody 071
B6: 042 (antibody, V domains shown)
VH: QIQLVQSGPELKKPGETVKISCRASGYTFTTYGMSWVKQAPGKGLRWMGWINTYSGVSTCADDFKGRFAFSLETSATTAYLQIHNLTNEDTATYFCARDPHSYGNSPAWFPYWGQGTLVTVSA
VL: DIVMTQSQKFMSTTIRDRVSITCKASQNVGISVAWYQQKSGQSPKLLIYSASNRYTGVPDRFTGSGSGTDFTLTISNMQSEDLADYFCQQYSSYPLTFGSGTKLAIK
notes: Mouse monoclonal hybridoma antibody; also called antibody 042; hybridoma antibody 042
B7: 073 (antibody, V domains shown)
VH: QIQLVQSGPELKKPGETVKISCKASGYTFTTYGMSWVKQAPGKGLKWMVWINTYSGVPTYADDFKGRFAFSLETSASTSYLQINNLKNEDTATYFCARDPHYYGSSPAWFVYWGQGTLVTVSA
VL: DIVMTQSQKFMSTTIGDRVSITCEASQIVGIAVAWYQQKPGQSPKLLIYSASNRYTGVPDRFTGSGSGTDFTLTISNMQSEDLANYFCQQYSAYPFTFGSGTKLEVK
notes: Mouse monoclonal hybridoma antibody; also called antibody 073; hybridoma antibody 073
B8: 005 (antibody, V domains shown)
VH: EVKLVESGGGLVQPGGSLSLSCAASGFTFTDYYMSWVRQPPGKALEWLGFIKNEANGYTTESSASVKGRFTISRDNSQSILYLQMNALRAEDSATYYCARYDYYGSNYNWYFDAWGTGTTVTVSS
VL: DIVMTQSQKFMSPSVGDRVSITCKASQNVRTAVAWYQQKPGQSPKVLIHLASKRHTGVPDRFTGSGSGTDFTLTISNVQSEDLADYFCLQHWIHPLTFGAGTKLELK
notes: Mouse monoclonal hybridoma antibody purified on Protein A; also called antibody 005; hybridoma antibody 005

Legend:
[1] = target: full length human SIRPα v1 with a small beta-gal fragment (ED) fused to its C-terminal, expressed in K562 … (human, UniProt P78324 31-504); experiment: cell-based or functional assay
[2] = target: T2, full length human SIRPα v1 stably expressed on CHOK1 or 293F cells (human, UniProt P78324 31-504); experiment: FACS, CHOK1-human SIRPα v1 cells
T2 construct: whole, on cells; also called CHOK1-human SIRPα v1; CHOK1-hSIRPα v1
Description: (§1) Species cross reactivity of the purified hybridoma antibodies against human, cyno and mouse SIRPα was determined by FACS assay using CHOK1 cells stably expressing human SIRPα v1, CHOK 1-cyno SIRPα and C57BL/6 mouse SIRPα. Briefly the antibodies were incubated with 2×10⁵ target cells at 4° C. for 1 hour. After washing, fluorescence labeled anti-mouse IgG 2nd antibody (Life Technologies) was added and incubated at 4° C. for 1 hour. Geometric median fluorescence intensity was detected and EC₅₀ was calculated using GraphPad Prism9.0. Other than HEFLB, all antibodies as tested can bind to cyno SIRPα. None of tested antibodies can bind to C57BL/6 mouse SIRPα.

[3] = target: T3, Fc tagged human SIRPα v1 ECD recombinant protein (human, UniProt P78324 31-370); experiment: ELISA, coated Fc tagged human SIRPα v1 ECD
T3 construct: range 1-370; also called hFc tagged human SIRPα v1 ECD; not shown: human IgG Fc (hFc) tag
Description: (§2) Binding specificity of the purified hybridoma antibodies against human SIRPα variants was detected by ELISA assay using recombinant proteins of Fc tagged human SIRPα v1 ECD and human SIRPα v2 ECD. Briefly the antibodies were incubated with ELISA microplate coated antigens at 37° C. for 1 hour. After washing, horseradish peroxidase (HRP) labeled anti-mouse IgG 2nd Ab (Sigma) was added and incubated at 37° C. for 1 hour. Then, 100 μl/well of TMB solution (Biotechnology) was added. After incubation for 15 minutes at room temperature, the reaction was stopped by the addition of 50 ul of 1N HCl. OD 450 nm was read and EC₅₀ was calculated using GraphPad Prism9.0. Other than HEFLB, all antibodies as tested bind to both human SIRPα v1 and human SIRPα v2. HEFLB can only bind to human SIRPα v1 but not human SIRPα v2.

[4] = target: T4, Fc tagged human SIRPα v2 ECD recombinant protein (human); experiment: ELISA, coated Fc tagged human SIRPα v2 ECD
T4 construct: range 1-369; also called hFc tagged human SIRPα v2 ECD
Description: as §2

[5] = target: T1, C57BL/6 mouse SIRPα stably expressed on …; experiment: FACS, CHOK1-C57BL/6 mouse SIRPα cells, MFI at 100 nM
Description: as §1

[6] = target: T5, human SIRPα v1 ECD recombinant protein (tag not given) (human, UniProt P78324 31-373); experiment: competitive ELISA, biotin human SIRPα v1 ECD on coated human CD47 ECD
T5 construct: extracellular domain; also called biotin labeled soluble human SIRPα v1 ECD recombinant protein; ELISA microplate coated human SIRPα v1 ECD
Description: Competitive ELISA assay was used to determine whether the purified hybridoma antibodies can block CD47 and SIRPα interaction. Briefly, antibody and biotin labeled soluble human SIRPα v1 ECD recombinant protein were co-incubated with ELISA microplate coated human CD47 ECD recombinant protein. After washing, HRP labeled streptavidin (HRP-SA, Sigma) was added and incubated at 37° C. for 1 hour. Then, 100 μl/well of TMB solution (Biotechnology) was added. After incubation for 15 minutes at room temperature, the reaction was stopped by the addition of 50 μl of 1N HCl. OD 450 nm was read. The blocking ratios were determined by blockade of biotin labeled human SIRPα v1 ECD recombinant protein binding to ELISA microplate coated human CD47 ECD recombinant protein. Other than 005, all antibodies as tested can block human CD47 and human SIRPα v1 interaction.

[7] = target: T2, full length human SIRPα v1 stably …; experiment: competitive FACS, mFc-CD47 ECD on CHOK1-human SIRPα v1 cells
Description: Competitive FACS assay was also set up to further compare the blocking activity of the humanized antibodies and reference antibodies. Briefly antibody and mFc tagged human CD47 ECD recombinant protein were co-incubated with CHOK1 cells stably expressing human SIRPα v1 (FIG. 16A) or human SIRPα v2 (FIG. 16B). After washing, dye labeled anti-mouse Fc 2nd antibody (Sigma) was added and incubated at 37° C. for 1 hour. Fluorescence intensity was detected. Blocking ratio was determined by blockade of human CD47 ECD recombinant protein binding to SIRPα expressed CHOK1 cells. […] In particular, HEFLB doesn't work at all for human SIRPα v2.

T3 sequence (P78324 31-370 limits assumed): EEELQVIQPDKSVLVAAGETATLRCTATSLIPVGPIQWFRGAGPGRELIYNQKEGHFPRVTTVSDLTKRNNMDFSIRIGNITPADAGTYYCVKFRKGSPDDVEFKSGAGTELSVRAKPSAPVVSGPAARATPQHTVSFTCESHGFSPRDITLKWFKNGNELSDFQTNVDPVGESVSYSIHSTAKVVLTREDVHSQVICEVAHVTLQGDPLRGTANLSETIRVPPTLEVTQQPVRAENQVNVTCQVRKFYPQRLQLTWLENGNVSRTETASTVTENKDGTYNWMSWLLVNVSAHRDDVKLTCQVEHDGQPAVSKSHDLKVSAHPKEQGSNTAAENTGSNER
full length human SIRPα v1 with a small beta-gal fragment (ED) fused to its C-terminal, expressed in K562 …, sequence (P78324 31-504): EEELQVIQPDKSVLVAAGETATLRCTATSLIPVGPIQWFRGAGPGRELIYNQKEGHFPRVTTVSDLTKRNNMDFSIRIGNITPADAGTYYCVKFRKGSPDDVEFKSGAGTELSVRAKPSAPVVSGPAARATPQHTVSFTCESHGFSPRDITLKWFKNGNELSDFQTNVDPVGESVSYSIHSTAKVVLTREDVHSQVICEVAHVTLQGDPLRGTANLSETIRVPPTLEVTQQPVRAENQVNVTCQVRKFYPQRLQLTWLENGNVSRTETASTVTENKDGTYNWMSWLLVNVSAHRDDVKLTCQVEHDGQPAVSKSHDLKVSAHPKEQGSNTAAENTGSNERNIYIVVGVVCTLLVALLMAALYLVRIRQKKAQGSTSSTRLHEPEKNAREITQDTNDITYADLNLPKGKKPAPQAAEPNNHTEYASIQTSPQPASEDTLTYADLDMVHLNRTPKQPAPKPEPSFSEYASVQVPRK
T2 sequence (P78324 31-504): as above
T5 sequence (P78324 31-373): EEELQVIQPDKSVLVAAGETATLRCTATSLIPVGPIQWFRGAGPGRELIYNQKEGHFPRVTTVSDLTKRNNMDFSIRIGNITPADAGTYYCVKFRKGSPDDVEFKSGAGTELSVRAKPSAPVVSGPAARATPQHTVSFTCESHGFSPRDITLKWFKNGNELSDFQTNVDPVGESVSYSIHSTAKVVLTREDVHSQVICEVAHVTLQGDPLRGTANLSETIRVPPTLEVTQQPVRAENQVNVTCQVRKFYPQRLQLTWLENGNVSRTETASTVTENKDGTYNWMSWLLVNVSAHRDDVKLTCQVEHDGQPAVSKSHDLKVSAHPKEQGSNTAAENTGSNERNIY

Binder	SHP-1 recruitment (% blocking), Test I [1]	SHP-1 recruitment (% blocking), Test II [1]	EC50 [2]	EC50 [3]	EC50 [4]	binding result [5]	IC50 [6]	IC50 [7]	TOP blocking (%) [7]
B1	83.6%	89.6%	1000 pM	100 pM	150 pM	no binding (tested: 100 nM)	300 pM	–	–
B2	83.9%	91.2%	900 pM	40 pM	60 pM	no binding (tested: 100 nM)	150 pM	–	–
B3	77.5%	80.2%	100 pM	30 pM	100 pM	no binding (tested: 100 nM)	120 pM	–	–
B4	46.8%	50.3%	11200 pM	170 pM	–	no binding (tested: 100 nM)	500 pM	940 pM	97.6%
B5	77.2%	72.6%	200 pM	30 pM	20 pM	no binding (tested: 100 nM)	170 pM	–	–
B6	84.8%	76.1%	200 pM	30 pM	30 pM	no binding (tested: 100 nM)	140 pM	–	–
B7	76.9%	75.9%	200 pM	30 pM	30 pM	no binding (tested: 100 nM)	160 pM	–	–
B8	71%	82.7%	1800 pM	130 pM	120 pM	no binding (tested: 100 nM)	–	–	–
